Series [1] addresses T1, LARP1 DM15 (Homo sapiens, UniProt Q6PKG0-3 796-946). Briefly: crystal structure; Competition assays: 20 mM Tris pH 8, 150 mM NaCl, 10% glycerol, 1 mM DTT, 0.5 ug BSA, 0.5 ug tRNA, 30 min on ice, native gel; EMSA as in Lahr et al. 2015 with RNA <=200 pM. The note with it: protein: recombinant. (In general: A gel shift assay detects complexes by their altered migration in electrophoresis.)

The target in series [2] is T1, LARP1 DM15. Briefly: EMSA; Competition assays: 20 mM Tris pH 8, 150 mM NaCl, 10% glycerol, 1 mM DTT, 0.5 ug BSA, 0.5 ug tRNA, 30 min on ice, native gel; EMSA as in Lahr et al. 2015 with RNA <=200 pM. The note with it: protein: recombinant.
In the next series the target is eIF4E (Homo sapiens, UniProt P06730 1-217). Kind of series: competition; outcompetes DM15 as pre-bound or competitor protein; Competition assays: 20 mM Tris pH 8, 150 mM NaCl, 10% glycerol, 1 mM DTT, 0.5 ug BSA, 0.5 ug tRNA, 30 min on ice, native gel; EMSA as in Lahr et al. 2015 with RNA <=200 pM. The note with it: protein: recombinant; tags: His6-MBP removed by TEV; label: 32P in cap.
eIF4E, sequence (P06730 whole entry): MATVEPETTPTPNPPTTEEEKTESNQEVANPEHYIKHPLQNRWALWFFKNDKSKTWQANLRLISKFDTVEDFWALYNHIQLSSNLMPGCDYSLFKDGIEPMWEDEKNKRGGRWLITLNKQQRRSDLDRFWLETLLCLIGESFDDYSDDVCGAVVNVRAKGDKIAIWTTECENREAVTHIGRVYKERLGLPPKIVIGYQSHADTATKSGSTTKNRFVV

Consider CUUUUCCG (ssRNA) [RPS6 8mer], for which the binding result with LARP1 DM15 [1] is “binds”.
CCUCUUUUCCGUGGCGCCUCGGAGGCGUUCAGCUGCUUCAAG (ssRNA, 5' m7Gppp cap) [m7Gppp-RPS6 42mer (capped TOP)]: the Kd (commonly a measure of binding affinity in units of concentration) with LARP1 DM15 [2] (label: 32P in cap) was found to be 0.021 µM.
On to CUCUCUUCCUCGGCGCUGCCUACGGAGGUGGCAGCCAUCUCC (ssRNA, 5' m7Gppp cap) [m7Gppp-RPL32 42mer], for which, in the series with LARP1 DM15 [2] (label: 32P in cap), the binding result is given as “binds”.
For GCCUCUUUUCCGUGGCGCCUCGGAGGCGUUCAGCUGCUUCAAG (ssRNA) [G-RPS6 (uncapped non-TOP)], the Kd with LARP1 DM15 [2] (label: 5' 32P) came to 7.5 µM.
As to GCCUCUUUUCCGUGGCGCCUCGGAGGCGUUCAGCUGCUUCAAG (ssRNA, 5' m7Gppp cap) [m7Gppp-G-RPS6 (capped non-TOP)], the binding result with eIF4E is reported as “binds”. The Kd in the series with LARP1 DM15 [2] (label: 32P in cap) was 2 µM.

Source of the values: paper PMC5419741, “La-related protein 1 (LARP1) binds the mRNA cap, blocking eIF4F assembly on TOP mRNAs”.
